First the molecules themselves.
B1: Complement factor H (Homo sapiens), P08603 (parent)
chain: MRLLAKIICLMLWAICVAEDCNELPPRRNTEILTGSWSDQTYPEGTQAIYKCRPGYRSLGNVIMVCRKGEWVALNPLRKCQKRPCGHPGDTPFGTFTLTGGNVFEYGVKAVYTCNEGYQLLGEINYRECDTDGWTNDIPICEVVKCLPVTAPENGKIVSSAMEPDREYHFGQAVRFVCNSGYKIEGDEEMHCSDDGFWSKEKPKCVEISCKSPDVINGSPISQKIIYKENERFQYKCNMGYEYSERGDAVCTESGWRPLPSCEEKSCDNPYIPNGDYSPLRIKHRTGDEITYQCRNGFYPATRGNTAKCTSTGWIPAPRCTLKPCDYPDIKHGGLYHENMRRPYFPVAVGKYYSYYCDEHFETPSGSYWDHIHCTQDGWSPAVPCLRKCYFPYLENGYNQNYGRKFVQGKSIDVACHPGYALPKAQTTVTCMENGWSPTPRCIRVKTCSKSSIDIENGFISESQYTYALKEKAKYQCKLGYVTADGETSGSITCGKDGWSAQPTCIKSCDIPVFMNARTKNDFTWFKLNDTLDYECHDGYESNTGSTTGSIVCGYNGWSDLPICYERECELPKIDVHLVPDRKKDQYKVGEVLKFSCKPGFTIVGPNSVQCYHFGLSPDLPICKEQVQSCGPPPELLNGNVKEKTKEEYGHSEVVEYYCNPRFLMKGPNKIQCVDGEWTTLPVCIVEESTCGDIPELEHGWAQLSSPPYYYGDSVEFNCSESFTMIGHRSITCIHGVWTQLPQCVAIDKLKKCKSSNLIILEEHLKNKKEFDHNSNIRYRCRGKEGWIHTVCINGRWDPEVNCSMAQIQLCPPPPQIPNSHNMTTTLNYRDGEKVSVLCQENYLIQEGEEITCKDGRWQSIPLCVEKIPCSQPPQIEHGTINSSRSSQESYAHGTKLSYTCEGGFRISEENETTCYMGKWSSPPQCEGLPCKSPPEISHGVVAHMSDSYQYGEEVTYKCFEGFGIDGPAIAKCLGEKWSHPPSCIKTDCLSLPSFENAIPMGEKKDVYKAGEQVTYTCATYYKMDGASNVTCINSRWTGRPTCRDTSCVNPPTVQNAYIVSRQMSKYPSGERVRYQCRSPYEMFGDEEVMCLNGNWTEPPQCKDSTGKCGPPPPIDNGDITSFPLSVYAPASSVEYQCQNLYQLEGNKRITCRNGQWSEPPKCLHPCVISREIMENYNIALRWTAKQKLYSRTGESVEFVCKRGYRLSSRSHTLRTTCWDGKLEYPTCAKR
partner: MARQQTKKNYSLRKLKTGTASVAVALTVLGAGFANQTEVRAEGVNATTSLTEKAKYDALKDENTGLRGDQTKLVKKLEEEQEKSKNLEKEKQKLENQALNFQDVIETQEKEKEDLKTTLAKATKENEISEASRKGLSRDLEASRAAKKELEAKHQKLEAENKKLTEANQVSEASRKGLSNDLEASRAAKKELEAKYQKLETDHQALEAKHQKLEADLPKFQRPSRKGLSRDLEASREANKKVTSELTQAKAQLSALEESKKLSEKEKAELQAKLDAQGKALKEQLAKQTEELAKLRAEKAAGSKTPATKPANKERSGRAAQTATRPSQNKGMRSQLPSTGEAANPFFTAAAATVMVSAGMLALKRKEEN

In this experiment the parent is B1. Particulars: with mx_strp9 ennX.
On to Y402H, for which the “effect of a mutation on the interaction” value is recorded as “decreasing interaction strength”.

The values are drawn from IntAct's records for PubMed 18627465.
